# Measured values reported in publication PMC7050208.
# Tested on: N[C@@H](CCOP(=O)(O)O)C(=O)O
# Assay: coupled MESG/PNP phosphate release, A360
# Type: biochemical, Bacillus spizizenii
# Conditions: 50 mM HEPES-NaOH pH 7.5, 100 μM PLP
Substance,Km (0.1 μM enzyme) [µM],kcat (0.1 μM enzyme) [s⁻¹],Km (0.25 μM enzyme) [µM],kcat (0.25 μM enzyme) [s⁻¹]
BsThrC (Bacillus spizizenii),329,1.74,,
RhiB (Bacillus spizizenii ATCC 6633 = JCM 2499),,,824,0.60
